{"source": "paper PMC7442819", "about": "“Taf14 recognizes a common motif in transcriptional machineries and facilitates their clustering by phase separation” (Nature Communications, 2020)", "binders": {"B1": {"name": "Tfg1 motif from 685 to 700 (peptide, UniProt P41895 685-700, looked up)", "peptide": "EAIGDGKVNIKEFGKF", "notes": "Tfg1, Saccharomyces cerevisiae, second motif, residues 685-700"}, "B2": {"name": "Tfg1 motif from 613 to 628 (peptide, UniProt P41895 613-628, looked up)", "peptide": "IKNCVIILKGDKKILK", "notes": "Tfg1, Saccharomyces cerevisiae, first motif, residues 613-628"}, "B3": {"name": "Tfg1 fragment containing both motifs (domain or fragment)", "chain": "DTLSKSKRSSPKKQQKKATNAHVHKEPTLRVKSIKNCVIILKGDKKILKSFPEGEWNPQTTKAVDSSNNASNTVPSPIKQEEGLNSTVAEREETPAPTITEKDIIEAIGDGKVNIKEFGKFIRRKYPGAENKKLMFAIVKKLCRKVGNDHMELKKE"}, "B4": {"name": "Sth1EBM (Sth1_(1183–1240)) (domain or fragment, Saccharomyces cerevisiae, UniProt P32597 1183-1240, looked up)", "chain": "EVKSSSVEIINGSESKKKKPKLTVKIKLNKTTVLENNDGKRAEEKPESKSPAKKTAAK", "notes": "source: E. coli Rosetta, purified (Ni-NTA, on-beads digestion, SEC)"}, "B5": {"name": "Sth1EBM K1207E (domain or fragment, Saccharomyces cerevisiae, UniProt P32597 1183-1240, looked up)", "chain": "B4 chain with K25E", "notes": "source: E. coli Rosetta, purified (same protocol as the wild type)"}, "B6": {"name": "Sth1EBM I1208A (domain or fragment, Saccharomyces cerevisiae, UniProt P32597 1183-1240, looked up)", "chain": "B4 chain with I26A", "notes": "also called Sth1^I1208A; source: E. coli Rosetta, purified (same protocol as the wild type)"}, "B7": {"name": "Sth1EBM L1204A (domain or fragment, Saccharomyces cerevisiae, UniProt P32597 1183-1240, looked up)", "chain": "B4 chain with L22A", "notes": "as for B5"}, "B8": {"name": "Sth1EBM V1206A (domain or fragment, Saccharomyces cerevisiae, UniProt P32597 1183-1240, looked up)", "chain": "B4 chain with V24A", "notes": "as for B5"}, "B9": {"name": "Sth1EBM K1209E (domain or fragment, Saccharomyces cerevisiae, UniProt P32597 1183-1240, looked up)", "chain": "B4 chain with K27E", "notes": "as for B5"}, "B10": {"name": "Sth1EBM L1210A (domain or fragment, Saccharomyces cerevisiae, UniProt P32597 1183-1240, looked up)", "chain": "B4 chain with L28A", "notes": "as for B5"}, "B11": {"name": "Taf2_(1393–1406) (peptide, UniProt P23255 1393-1406, looked up)", "peptide": "RSFMVKIRTKNDAK", "notes": "Taf2, Saccharomyces cerevisiae, residues 1393-1406; source: synthetic peptide (Scilight-Peptide and GenScript) for NMR"}, "B12": {"name": "Taf14ET (Taf14_(174–244)) (domain or fragment, Saccharomyces cerevisiae, UniProt P35189 174-244, looked up)", "chain": "KGSVDLEKLAFGLTKLNEDDLVGVVQMVTDNKTPEMNVTNNVEEGEFIIDLYSLPEGLLKSLWDYVKKNTE", "notes": "Taf14, Saccharomyces cerevisiae, ET domain, residues 174-244; 15N- or 15N/13C-labelled for NMR; also called Taf14 ET domain; 15N-Taf14ET; source: E. coli Rosetta, purified (Ni-NTA, on-beads digestion, SEC)"}, "B13": {"name": "GST-Taf14_(174–244) (domain or fragment, Saccharomyces cerevisiae, UniProt P35189 174-244, looked up)", "chain": "B12 chain", "notes": "Taf14, Saccharomyces cerevisiae, ET domain, residues 174-244; also called GST-Taf14ET; GST-tagged Taf14ET; source: E. coli Rosetta, purified (Ni-NTA, eluted as GST-fused protein, SEC); not shown: 6*His-GST, N-terminal, kept"}, "B14": {"name": "Snf5_(771–800) (peptide, UniProt P18480 771-800, looked up)", "peptide": "SPPCYIIDHIPGHSLLLSIKLPGKVNTKEE", "notes": "also called Snf5EBM; source: synthetic peptide (Scilight-Peptide and GenScript) for NMR"}, "B15": {"name": "Ino80_(368–390) (peptide, UniProt P53115 368-390, looked up)", "peptide": "DSKLNIKITLKQYHVKRLKKLIN", "notes": "Ino80, Saccharomyces cerevisiae, residues 368-390; also called Ino80EBM; source: synthetic peptide (Scilight-Peptide and GenScript) for NMR"}, "B16": {"name": "Sas3_(111–129) (peptide, UniProt P34218 111-129, looked up)", "peptide": "SEELKVRIKYDSIKFFNFE", "notes": "Sas3, Saccharomyces cerevisiae, residues 111-129; source: synthetic peptide (Scilight-Peptide and GenScript) for NMR"}}, "key": {"[1]": {"molecular_target": "T1, Taf14ET (Taf14_(174–244)) (Saccharomyces cerevisiae), P35189", "T1 chain": "B12 chain", "assay": "ITC", "settings": "modification not given"}, "[2]": {"molecular_target": "B12", "assay": "ITC; peptide at 1.0 mM in the syringe titrated into Taf14ET at 0.1 mM in the cell; 20 mM phosphate pH 7.0, 100 mM NaCl, 2 mM DTT; 25 °C; one binding site model", "settings": "both partners purified"}, "[3]": {"molecular_target": "T2, Taf14ET (Taf14_(174–244)) (Saccharomyces cerevisiae, UniProt P35189 174-244)", "T2 chain": "B12 chain", "assay": "ITC"}, "[4]": {"molecular_target": "T2, Taf14ET (Taf14_(174–244))", "assay": "ITC"}, "Taf14ET I222R": {"molecular_target": "Taf14ET I222R (Saccharomyces cerevisiae, UniProt P35189 174-244, I222R)", "assay": "ITC"}, "Taf14ET F220A": {"molecular_target": "T3, Taf14ET F220A (Saccharomyces cerevisiae)", "T3 chain": "B12 chain with F47A", "assay": "ITC"}, "Taf14ET F220R": {"molecular_target": "Taf14ET F220R (Saccharomyces cerevisiae, UniProt P35189 174-244, F220R)", "assay": "ITC"}, "[5]": {"molecular_target": "T2, Taf14ET (Taf14_(174–244))", "assay": "ITC"}, "[6]": {"molecular_target": "the molecule itself", "assay": "15N-1H HSQC at several concentrations; apo 15N-Taf14ET at 0.05, 0.1, 0.2 and 0.5 mM"}, "Sth1EBM K1207E": {"molecular_target": "Sth1EBM K1207E (Saccharomyces cerevisiae, UniProt P32597 1183-1240, K1207E)", "assay": "ITC"}, "Sth1EBM I1208A": {"molecular_target": "Sth1EBM I1208A (Saccharomyces cerevisiae, UniProt P32597 1183-1240, I1208A)", "assay": "ITC"}, "Sth1EBM K1209E": {"molecular_target": "Sth1EBM K1209E (Saccharomyces cerevisiae, UniProt P32597 1183-1240, K1209E)", "assay": "ITC"}, "Sth1EBM V1206A": {"molecular_target": "Sth1EBM V1206A (Saccharomyces cerevisiae, UniProt P32597 1183-1240, V1206A)", "assay": "ITC"}, "Sth1EBM L1204A": {"molecular_target": "Sth1EBM L1204A (Saccharomyces cerevisiae, UniProt P32597 1183-1240, L1204A)", "assay": "ITC"}, "Sth1EBM L1210A": {"molecular_target": "Sth1EBM L1210A (Saccharomyces cerevisiae, UniProt P32597 1183-1240, L1210A)", "assay": "ITC"}, "Sth1_(1183–1359)": {"molecular_target": "T4, Sth1_(1183–1359) (Saccharomyces cerevisiae, UniProt P32597 1183-1359)", "T4 construct": "source: E. coli Rosetta, purified", "T4 sequence (looked up)": "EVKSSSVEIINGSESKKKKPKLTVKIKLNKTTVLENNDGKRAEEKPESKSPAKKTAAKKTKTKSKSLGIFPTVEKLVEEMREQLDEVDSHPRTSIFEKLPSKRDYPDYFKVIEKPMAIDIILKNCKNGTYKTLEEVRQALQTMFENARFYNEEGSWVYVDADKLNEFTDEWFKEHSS", "assay": "pull-down; GST-tagged ET domain (25 μg) and binding partner (50 μg) with glutathione–Sepharose 4B beads; 25 mM Tris-HCl pH 8.0, 150 mM NaCl, 2 mM DTT; 4 °C, 3 h; SDS-PAGE", "settings": "both partners purified"}, "GST-Taf14_(174–244)": {"molecular_target": "B13", "assay": "pull-down; GST-tagged ET domain (25 μg) and binding partner (50 μg) with glutathione–Sepharose 4B beads; 25 mM Tris-HCl pH 8.0, 150 mM NaCl, 2 mM DTT; 4 °C, 3 h; SDS-PAGE", "settings": "both partners purified"}}, "note": "Positions count from the first letter of the chain named. Names may count otherwise. “And” between values parts separate entries of the source, which are not always exact repeats. Equal entries are not always repeated."}
{"binder": "SPPCYIIDHIPGHSLLASIKLPGKVNTKEE", "note": "[Snf5EBM L787A]", "values": [{"measurement": "Kd", "setting": "[1]", "value": 41.5, "unit": "µM"}]}
{"binder": "B1", "values": [{"measurement": "Kd", "setting": "[2]", "value": "~9", "unit": "µM"}]}
{"binder": "DSKLNIKITAKQYHVKRLKKLIN", "note": "[Ino80EBM L377A]", "values": [{"measurement": "Kd", "setting": "[1]", "value": 3.87, "unit": "µM"}]}
{"binder": "B2", "values": [{"measurement": "Kd", "setting": "[2]", "value": "~17", "unit": "µM"}]}
{"binder": "SPPCYIIDHIPGHSLLLSAKLPGKVNTKEE", "note": "[Snf5EBM I789A]", "values": [{"measurement": "Kd", "setting": "[1]", "value": 189, "unit": "µM"}]}
{"binder": "DSKLNAKITLKQYHVKRLKKLIN", "note": "[Ino80EBM I373A]", "values": [{"measurement": "Kd", "setting": "[1]", "value": 3.86, "unit": "µM"}]}
{"binder": "B3", "values": [{"measurement": "Kd", "setting": "[2]", "value": "~0.33", "unit": "µM"}]}
{"binder": "B4", "values": [{"measurement": "Kd", "setting": "[3]", "value": "0.372 µM and 0.194 µM"}, {"measurement": "Kd", "setting": "[4]", "value": 0.05, "unit": "µM"}, {"measurement": "Kd", "setting": "Taf14ET I222R", "value": 54.6, "unit": "µM"}, {"measurement": "Kd", "setting": "Taf14ET F220A", "value": 0.68, "unit": "µM"}, {"measurement": "Kd", "setting": "Taf14ET F220R", "value": 3.5, "unit": "µM"}, {"measurement": "Kd", "setting": "[2]", "value": "~0.055", "unit": "µM"}]}
{"binder": "B5", "values": [{"measurement": "fold increase of KD against wild-type Sth1EBM", "setting": "[2]", "value": 154, "unit": "fold"}]}
{"binder": "B6", "values": [{"measurement": "fold increase of KD against wild-type Sth1EBM", "setting": "[2]", "value": 270, "unit": "fold"}]}
{"binder": "B7", "values": [{"measurement": "binding result", "setting": "[2]", "value": "binds"}]}
{"binder": "B8", "values": [{"measurement": "binding result", "setting": "[2]", "value": "binds"}]}
{"binder": "B9", "values": [{"measurement": "fold increase of KD against wild-type Sth1EBM", "setting": "[2]", "value": 79, "unit": "fold"}]}
{"binder": "B10", "values": [{"measurement": "binding result", "setting": "[2]", "value": "binds"}]}
{"binder": "B11", "values": [{"measurement": "Kd", "setting": "[5]", "value": 0.8, "unit": "µM"}, {"measurement": "binding result", "setting": "[2]", "value": "binds"}]}
{"binder": "B12", "values": [{"measurement": "binding result", "setting": "[6]", "value": "binds"}, {"measurement": "Kd", "setting": "Sth1EBM K1207E", "value": "3.94 µM and 7.69 µM"}, {"measurement": "Kd", "setting": "Sth1EBM I1208A", "value": 13.4, "unit": "µM"}, {"measurement": "Kd", "setting": "Sth1EBM K1209E", "value": "7.69 µM and 3.94 µM"}, {"measurement": "Kd", "setting": "Sth1EBM V1206A", "value": 2.04, "unit": "µM"}, {"measurement": "Kd", "setting": "Sth1EBM L1204A", "value": 2.06, "unit": "µM"}, {"measurement": "Kd", "setting": "Sth1EBM L1210A", "value": 1.14, "unit": "µM"}]}
{"binder": "B13", "values": [{"measurement": "binding result", "setting": "Sth1_(1183–1359)", "value": "binds"}]}
{"binder": "B14", "values": [{"measurement": "Kd", "setting": "[5]", "value": 2.48, "unit": "µM"}, {"measurement": "binding result", "setting": "[2]", "value": "binds"}]}
{"binder": "B15", "values": [{"measurement": "Kd", "setting": "[5]", "value": 0.25, "unit": "µM"}, {"measurement": "binding result", "setting": "[2]", "value": "binds"}]}
{"binder": "B16", "values": [{"measurement": "Kd", "setting": "[5]", "value": 31.3, "unit": "µM"}, {"measurement": "binding result", "setting": "[2]", "value": "binds"}]}
{"binder": "KKKPKLTVKIKLNKTTVLENNDGKRAE (domain or fragment, Saccharomyces cerevisiae, UniProt P32597 1199-1225, looked up, source: E. coli Rosetta, purified)", "note": "[Sth1_(1199–1225)]", "values": [{"measurement": "binding result", "setting": "GST-Taf14_(174–244)", "value": "binds"}]}
